According to patent US20260035464A1:

Key:
[1] = biological target: human BTLA extracellular domain with C-terminal 10xHis tag (human) (UniProt Q7Z6A9); test: BLI (Octet RED96), antibody on AHC biosensor, His-tag-huBTLA in solution
[2] = biological target: human BTLA extracellular domain with C-terminal 10xHis tag (human) (UniProt Q7Z6A9); test: BLI (Octet RED96), antibody on AHC biosensor, His-tag-huBTLA in solution; column head prints nM, but Koff/Kon shows the values are in M

Chain of human BTLA extracellular domain with C-terminal 10xHis tag (human) (Q7Z6A9 other isoform, or with tags, fused parts or gaps): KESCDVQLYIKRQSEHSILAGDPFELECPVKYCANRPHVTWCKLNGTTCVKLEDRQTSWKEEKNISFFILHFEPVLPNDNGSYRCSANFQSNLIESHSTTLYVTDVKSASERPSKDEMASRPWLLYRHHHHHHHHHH

## Icatolimab (antibody)
[1]
  koff: 0.00124 s⁻¹
  kon: 621000 M⁻¹ s⁻¹
[2]
  Kd: 2.09 nM
